Data published in patent publication US20170165338A1.

These binders were tested against HLA-A*02 (human) (assay: UV-exchange b2m ELISA).

Binder | peptide exchange yield
GIAGSLKTV | 50 to 75%
SLFSDEFKV | 50 to 75%
FLHDEKEGIYI | 50 to 75%
FLLPFSTVYL | 50 to 75%
YLLPLLPAL | 50 to 75%
ALFAPLVHL | 50 to 75%
GLSQITNQL | 50 to 75%
KLMPGTYTL | > 75%
FVDPNTQEKV | 20 to 49%
SLADTNSLAVV | 50 to 75%
SLATKIVEA | 50 to 75%
ALQEELTEL | 50 to 75%
KLLDPQEFTL | 50 to 75%
TLDEKVAEL | 50 to 75%
ALFENTPKA | 20 to 49%
VQLDSIEDLEV | 50 to 75%
ILAPFSVDL | 50 to 75%
LLFSRLCGA | > 75%
ALLERGELFV | 50 to 75%
ILFHGVFYA | 50 to 75%
KMVGLVVAI | 50 to 75%
YLLDPSITL | 50 to 75%
GLLPLLHRA | > 75%
KLEENGDLYL | > 75%
YLDLSHNQL | 50 to 75%
QVIEDSTGV | 20 to 49%
TVFTDHMLTV | 20 to 49%

Binder | peptide exchange yield
FLLATEVVTV | > 75%
ILLDLTDNRL | 50 to 75%
ALSPSYLTV | 50 to 75%
FLVDGSYSI | 50 to 75%
TMDSVLVTV | 50 to 75%
ALNIATHVL | 50 to 75%
ALMAMLVYV | 20 to 49%
GIVAHIQEV | 50 to 75%
TITETTVEV | 50 to 75%
LLYPEPWSV | > 75%
ILDHEVPSL | 50 to 75%
SLFETAWEA | 50 to 75%
AMIEEVFEA | 20 to 49%
YTLDIPVLFGV | > 75%
LLDSVSRL | < 20%
SISDNVWEV | 50 to 75%
AIQDEIRSV | 50 to 75%
VLNPLITAV | 50 to 75%
YIKTELISV | 50 to 75%
ALFDSLRHV | 50 to 75%
RLMEENWNA | 50 to 75%
FLGPRIIGL | 50 to 75%
SLPNGKPVSV | 50 to 75%
VLIDPQWVLTA | 50 to 75%
HLLEGSVGV | 50 to 75%
ILAKDLFEI | > 75%
SQFPLPLAV | 20 to 49%
